T1: TtArsC (Thermus thermophilus, UniProt Q72HI5)
T1 construct: gene TT_C1502; recombinant, pET30/TtarsC in E. coli BL21-CodonPlus(DE3)-RIL; thermo-precipitation, anion exchange (Resource Q), gel filtration (Superdex S75); no tag mentioned
T1 sequence (Q72HI5 1-150): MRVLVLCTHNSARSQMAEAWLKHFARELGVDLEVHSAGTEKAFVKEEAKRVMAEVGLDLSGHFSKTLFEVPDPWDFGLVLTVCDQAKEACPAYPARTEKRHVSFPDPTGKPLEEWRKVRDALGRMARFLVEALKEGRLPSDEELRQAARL


Experiments:
[1] = target: T1, TtArsC; test: biochemical
[2] = substrate: O=[N+]([O-])c1ccc(OP(=O)(O)O)cc1; test: purified protein; assay type: biochemical, Thermus thermophilus; details: no inhibitor, 4 µM enzyme, 20 mM Tris-HCl pH 7, 60 °C

Molecule	Ki [1]	Km [2]	Vmax [2]	kcat [2]
O=[As]O [As(III)]	394 ± 40.3 µM	–	–	–
TtArsC (Thermus thermophilus HB27) (protein, recombinant, pET30/TtarsC in E. coli BL21-CodonPlus(DE3)-RIL; thermo-precipitation, anion exchange (Resource Q), gel filtration (Superdex S75); no tag mentioned) MRVLVLCTHNSARSQMAEAWLKHFARELGVDLEVHSAGTEKAFVKEEAKRVMAEVGLDLSGHFSKTLFEVPDPWDFGLVLTVCDQAKEACPAYPARTEKRHVSFPDPTGKPLEEWRKVRDALGRMARFLVEALKEGRLPSDEELRQAARL	–	9.57 ± 1.95 mM	0.0193 µmol/min/mg	0.005 s⁻¹
